Measured values: patent publication US8802630B2, “Method of treating brain injury” (Buddhist Tzu Chi General Hospital, priority 2011, dated 2014)
Where no end group is shown, it is not given here.

Key:
[1] = tested on: collagenase-induced ICH rats; assay: modified Neurological Severity Score (mNSS), collagenase-induced ICH model; format: in vivo
Procedure: (§1) The ICH refers to hemorrhage in the striatum, a part of the brain. Male Sprague-Dawley rats (250-300 g) anesthetized with chloral hydrate (0.4 g kg^−1 i.p., Sigma-Aldrich, St. Louis, Mo., USA). The blood infusion model of ICH was induced by intrastriatal (0.0 mm posterior, 3.0 mm right, 5.0 mm ventral to bregma skull surface) infusion of autologous blood (100 μl within 1 minute) and stereotaxic administration of bacterial collagenase VII-S into the striatum (MacLellan et al. 2008; Rosenberg et al. 1990). Briefly, bacterial collagenase VII-S (0.23 U in 1.0 μl sterile saline, Sigma-Aldrich) was infused into the striatum over a period of 10 minutes. The needle was kept in place for another 10 minutes to prevent backflow. The craniotomies were sealed with bone wax. The rats were allowed to recover in separate cages at room temperature.
(§2) Rats were used in the assessment of the neurological abnormalities with a modified Neurological Severity Score (mNSS) method (Chen et al. 2001) by an investigator blinded to the experimental treatment scheme. The mNSS is a composite test of motor, sensory, and balance functions. The assessment was performed before and on 1, 3 and 7 days after the ICH. Neurological functions were graded on a scale of 0-18 (normal score, 0; maximal deficit score, 18).

[2] = Evaluation of physiological parameters (MABP, heart rate, rectal temperature, blood gases); format: in vivo, rats; conditions: for RT (rectal temperature) / pCO2 / pO2 / pH: ICH + L-UCN 2.5 μg/kg i.p.; for decrease in MABP / increase in HR: 1.0 to 3.0 h post-treatment; for pH: arterial blood
Procedure: Rats were randomly assigned for evaluation of physiological parameters including mean arterial blood pressure, blood gases, body weight changes and body temperature. Under urethane (urethane (1.0 g/kg bodyweight, intraperitoneally, Sigma-Aldrich) anesthesia, a femoral artery was cannulated with a PE-50 polyethylene tube for fluid supplementation and monitoring of arterial blood pressure and blood gas. Arterial blood pressure was recorded through an amplifier (MP35, BIOPAC system, Inc.) and stored in a PC computer. Body temperature (rectal temperature) was automatically maintained at 37.5±0.5° C. by a rectal temperature sensor and a heating pad (CMA-150, Sweden). The physiological parameters were measured before (baseline) and after treatment (UCN or Saline) 0.5, 1 and 3 hours.

[3] = tested on: collagenase-induced ICH rats; assay: Morphometric measurement of lesion volume / injured area; format: in vivo; conditions: for injured area: UCN 5 μg i.c.v.
From the text: […] The brains were cut coronally through the needle entry site (identifiable on the brain surface), and then serially sliced (2-mm thickness) anteriorly and posteriorly to the needle entry site. Digital photographs of the serial slices were taken and lesion volume was computed using image analyzer program (Image J, NIH). The total lesion volume (mm^3) was computed by summing the residual blood clot and damaged area in each section and multiplying by the distance between sections (Jung et al., 2004).

IL-6 = assay: Cytokine ELISA of ipsilateral striatal tissue; format: in vivo, rats; conditions: L-UCN 2.5 μg/kg i.p.; day 1 post-ICH; vs ICH+Saline
Procedure: (§3) Rats were used for the cytokine assay by ELISA. The ipsilateral striatal tissues were collected before and on days 1, 3 and 7 days post-ICH. After homogenization in the lysis buffer (PRO-PREP™, iNtRON Biotechnology, Korea) and centrifuged at 12,000 g for 30 minutes, the supernatants were collected and stored frozen at −80° C. During quantification, the cytokines (TNFα, IL-1β and IL-6) were normalized to 100 μg of proteins in the supernatant using a commercial ELISA kit from R & D Systems (Minneapolis, Minn., USA) according to the manufacturer's instructions.

IL-1β = assay: Cytokine ELISA of ipsilateral striatal tissue; format: in vivo, rats; conditions: L-UCN 2.5 μg/kg i.p.; days 1, 3 and 7 post-ICH; vs ICH+Saline
Procedure: as §3

TNF-α = assay: Cytokine ELISA of ipsilateral striatal tissue; format: in vivo, rats; conditions: L-UCN 2.5 μg/kg i.p.; days 1, 3 and 7 post-ICH; vs ICH+Saline
Procedure: as §3

[4] = tested on: autologous blood infusion-induced ICH rats; assay: modified Neurological Severity Score (mNSS), autologous blood infusion ICH model; format: in vivo
Procedure: as §1, §2

[5] = Cerebral blood flow after bolus injection of UCN; format: in vivo; conditions: UCN 25 μg/kg body weight
[6] = UCN 2.5 μg/kg i.p. 1 h after ICH

urocortin (DNPSLSIDLTFHLLRTLLELARTQSQRERAEQNRIIFDSV; ends and bridges not checked; UniProt P55089 83-122, looked up) [UCN, a 40-amino-acid endogenous neuropeptide, belongs to the corticotrophin releasing hormone (CRH) family]
mNSS ([1]; H-UCN 25 μg/kg i.p. 60 min post-ICH, day 1, scale 0-18): 6.55±0.26 | mNSS ([1]; H-UCN 25 μg/kg i.p. 60 min post-ICH, day 3, scale 0-18): 4.68±0.29 | mNSS ([1]; H-UCN 25 μg/kg i.p. 60 min post-ICH, day 7, scale 0-18): 2.00±0.26 | mNSS ([1]; L-UCN 2.5 μg/kg i.p. 60 min post-ICH, day 1, scale 0-18): 3.86±0.70 | mNSS ([1]; L-UCN 2.5 μg/kg i.p. 60 min post-ICH, day 3, scale 0-18): 1.71±0.55 | mNSS ([1]; L-UCN 2.5 μg/kg i.p. 60 min post-ICH, day 7, scale 0-18): 1.63±0.46 | mNSS ([1]; UCN 0.05, 0.5 and 5 μg i.c.v. 1 h after collagenase ICH, over 7 days, most effective at 5 μg, vs ICH+Saline): dose-dependent reduction in the mNSS | RT (rectal temperature) ([2]; 0.5 h post-treatment): 36.95 ± 0.03 °C | pCO2 ([2]; 0.5 h post-treatment): 45.07 ± 1.05 mmHg | pO2 ([2]; 0.5 h post-treatment): 105.24 ± 6.00 mmHg | RT (rectal temperature) ([2]; 1.0 h post-treatment): 37.00 ± 0.05 °C | pCO2 ([2]; 1.0 h post-treatment): 42.60 ± 2.44 mmHg | pO2 ([2]; 1.0 h post-treatment): 107.28 ± 5.35 mmHg | RT (rectal temperature) ([2]; 3.0 h post-treatment): 36.97 ± 0.02 °C | pCO2 ([2]; 3.0 h post-treatment): 43.25 ± 1.59 mmHg | pO2 ([2]; 3.0 h post-treatment): 107.90 ± 5.59 mmHg | RT (rectal temperature) ([2]; baseline): 36.92 ± 0.05 °C | pCO2 ([2]; baseline): 46.73 ± 1.80 mmHg | pO2 ([2]; baseline): 100.00 ± 4.40 mmHg | decrease in MABP [2, 6]: ≤ 25 mm Hg | increase in HR [2, 6]: ≤ 35 beats/min | mean arterial blood pressure ([2]; UCN 5 μg i.c.v., over 3 hours): no significant difference | fall in mean arterial blood pressure (MABP) ([2]; UCN 25 μg/kg body weight, bolus intraperitoneal injection): 40-50 mmHg | fall of MABP ([2]; UCN 25 μg/kg body weight, bolus intravenous injection, vs intraperitoneal): much more abrupt fall of MABP | decrease in MABP ([2]; UCN 25 μg/kg i.p.): ≤ 40 mm Hg | increase in HR ([2]; UCN 25 μg/kg i.p.): ≤ 45 beats/min | pH ([2]; 0.5 h post-treatment): 7.39 ± 0.01 | pH ([2]; 1.0 h post-treatment): 7.42 ± 0.01 | pH ([2]; 3.0 h post-treatment): 7.42 ± 0.01 | pH ([2]; baseline): 7.37 ± 0.02 | lesion volume ([3]; L-UCN 2.5 μg/kg i.p., day 3 post-ICH): 23.73±1.79 mm^3 | injured area ([3]; day 3 after ICH): 16.14±1.22 mm^2 | injured area ([3]; day 7 after ICH): 5.62±1.04 mm^2 | IL-6 level of ipsilateral striatum (IL-6): reduced | IL-1β level of ipsilateral striatum (IL-1β): significantly reduced | TNF-α level of ipsilateral striatum (TNF-α): significantly reduced | mNSS ([4]; UCN 2.5 μg/kg i.p. 60 min after blood infusion ICH, vs ICH+Saline): greater reduction in mNSS | mNSS ([4]; UCN 5 μg i.c.v. 1 h after blood infusion ICH, vs saline): greater reduction in mNSS | reduction of the cerebral blood flow (CBF) ([5]; bolus intraperitoneal injection): 25% | reduction of CBF ([5]; bolus intravenous injection): 40-45%
